Where a chain is given by its changes, count along the chain named.
T1: recombinant human IP-10 (hIP-10) (human, UniProt P02778 22-98)
T1 sequence (looked up): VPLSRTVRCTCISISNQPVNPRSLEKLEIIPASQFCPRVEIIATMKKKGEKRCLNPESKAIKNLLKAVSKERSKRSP

B1: CC21R3P1_F1, scFv format (scFv)
chain: QVQLVESGGGVVQPGRSHTLSCAASGFAFKNSGIHWVRQAPGKGLEWVAVISYDGSNKFYADSVKGRFTISRDNSQNTVYLQMTDLRPDDTAVYYCARDGSESEYLDYWGKGTLVTVSSNFMLTQPHSVSESPGKTVTISCTGSGGSIDRNYVQWYQQRPGSAPITVIYEDNQRPSGVPDRFSGSIDSSSNSASLTISGLRTDDEADYYCQSYDSINLWVFGGGTKVTVL
B2: CF1A11R3P3_F3, scFv format (scFv, V domains shown, not shown: small tags and cut ends)
VH: QVQLVESGGGVVQPGRSLRLSCAASGFTFSNSGIHWVRQAPGKGLEWVAVISYDGSNKFYADSVKGRFTISRDNSKNTLYLQMNSLRAEDTAVYYCAKLRDNGEYLDYWGQGTLVTVSS
VL: NFMLTQPHSVSESPGKTVTISCTGSGGSIDRNYVQWYQQRPGSAPITVIYEDNQRPSGVPDRFSGSIDSSSNSASLTISGLRTDDEADYYCQSYDSINLWVFGGGTKVTVL
B3: CB21R3P3_E5, scFv format (scFv)
chain: QVQLVESGGGVVQPGRSLRLSCAASGFTFSSYGMHWVRQAPGKGLEWVAVISYDGSIKYYADSVKGRFTISRDNSKNTLYLQMNSLRAEDAAVYYCARAPDGHQLDYWGRGTLVTVSSNFMLTQPHSVSESPGKTVTISCTGSSGSIASNYVQWYQQRPGSAPTTVIYEDDQRPSDVPDRFSGSIDSSSNSASLTISGLRTEDEADYYCQSYVSSKWVFGGGTKLTVL
B4: CB21R3P1_F1, scFv format (scFv)
chain: QVQLVESGGGVVRPGRSLRLSCAASGFTFSSYGMHWVRQAPGKGLEWVAVISYDGSIKYYADSVKGRFTISRDNSKNTLYLQMNSLRAEDTAIYYCARVMGTDPHSYYYMDVWGKGTLVTVSSSSELTQDPAVSVALGQTVRITCQGDSLRSYYASWYQRKPGQAPVLVIYGKNNRPSGIPDRFSGSSSGNTASLTITGAQAEDEADYYCNSRDSSGNHVLFGGGTKLTVL
B5: CC21R3P4_F4, scFv format (scFv)
chain: QVQLVESGGGVAHSGKSLRLSCAASGFTFSNYGMHWVRQAPGKGLEWLAVISYDGSNRYYADSVKGRFTISRDNSNNTLNLQMSSLRAEDTALYYCAKDAGGPLDYWGRGTLVTVSSSYVLTQPPSVSVAPGQMARITCGGNNIGDKSVQWYQQRPGQAPLLVVYDDSDRPSGIPERFSGSYSRNTATLTISRVEAGDEADYYCQVWDSSSDHPEVVFGGGTKLTVL
B6: CC21R3P3_C1, scFv format (scFv)
chain: QVQLVESGGGVVQPGRSLRLSCAASGFTFSSYGMHWVRQAPGKGLEWVAVISYDGSIKYYADSVKGRFTISRDNSRNTLYLQMNSLRPEDTAVYYCAKDWGFSGSLTFDYWGQGTMVTVSSSYVLTQPPSVSVAPGKTARITCGGNNIGSKSVHWYQQKPGQAPVLVIYYDSDRPSGIPERFSGSNSGNTATLTISRVEAGDEADYYCQVWDSSSDHVVFGGGTKVTVL
B7: CB2R2P4_C3, scFv format (scFv)
chain: QVTLRESGPALVKPTQTLTLTCTFSGFSLTTSGMSVIWIRQPPGKALEWLARIDSDDEKHYNTSLKTRLAISKDTSKNQVVLTMTNMDPVDTGTYYCARLRAGSGPYVFDSWGQGTTVTVSSQSVLTQPPSASGTPGQRVTISCSGSSSNIGSNTVNWYQRLPGAAPQLLIYNNDQRPSGIPDRFSGSKSGTSGSLVISGLQSEDEADYYCASWDDSLNGRVFGGGTKLTVL
B8: CC21R3P1_C1a, scFv format (scFv)
chain: QVQLVESGGGVVQPGRSLRLSCAASGFTFSSYGMHWVRQAPGKGLEWVAVISYDGSNKYYADSVKGRFTISRDNSKNTLYLQMNSLRAEDTAVYYCAKDEFDAFDIWGRGTMVTVSSSYVLTQPPSVSVAPGTTARITCGGNNIGSRSVHWYQQKPGQAPLLVIYYDSDRPSGIPLRFSGSNSGNTATLTISRVEAGDEADYYCQVWDTSSGHYVFGTGTKVTVL
B9: CC21R3P1_E7, scFv format (scFv)
chain: QLVESGGGVVQPGRSLRLSCAASGFTFSTYGMHWVRQAPGKGLEWVAVISYDGGTKYYADSVKGRFTISRDNSMKTLYLQMNSLRTEDTAVYYCAKDLGDLPPGLDYWGQGTMVTVSSQSVLTQPPSASGTPGQRVTISCSGSSSNIGSNTVNWYQQLPGAAPKLLIYTNNQRPSGVPDRFSGSKSGTSASLAISGLQSEDEADYYCAAWDDSLNGNVVFGGGTKVTVL
B10: CC21R3P1_H6, scFv format (scFv)
chain: QVQLVESGGGVAQSGKSLRLSCAASGFTFSNYGMHWVRQAPGKGLEWLAVISYDGSNRYYADSVKGRFTISRDNSNNTLNLQMSSLRAEDTALYYCAKDAGGPLDYWGKGTLVTVSSQSVLTQLTQPPSVSLAPGQTATITCGGDNIGRKSVHWYQQKPGQAPVLVVYDDTDRPSGIPERFSGSNSGNTATLTISRVEAGDEADYYCQVWDSSIDHSWVFGGGTKLTVL
B11: CC21R3P1_B9, scFv format (scFv)
chain: EVQLVQSGGGVVQPGRSLRLSCAASGFTFSSYGMHWVRQAPGKGLEWVAVISYDGSNKYYADSVKGRFTISRDNSKNTLYLQMNSLRAEDTAVYYCAKDGGWYDWYFDLWGRGTLVTVSSSSELTQDPDVSVALGQTVRITCQGDSLTSYYASWYQQKPGQAPVLVISGNDNRPSGIPDRFSGSNSGNTASLTITGAQAEDAADYYCGSRDSSGYQVVFGAGTKLTVL
B12: CB1R3P4_D3, scFv format (scFv)
chain: QVQLVQFGGGVVQPGRSLRLSCAASGFTFSSYGMHWVRQAPGKGLEWVAVISYDGSIKYYADSVKGRFTISRENAKNSVYLQMDSLRVGDTAVYYCTRAGYSTDWHPDYWGQGTMVTVSSSSELTQDPAVSVALGQTVRITCQGDSLRSYYASWYQQKPGQAPVLAIYGKNNRPSGIPDRFSGSSSGNTASLTITGAQAEDEADYYCNSRDSSGNHVVFGGGTKLTVL
B13: CF1N1R3P4_C7, scFv format (scFv)
chain: QVQLVESGGGVVQPGRSLRLSCAASGFTFSNSGIHWVRQAPGKGLEWVAVISYDGSNKFYADSVKGRFTISRDNSKNTLYLQMNSLRAEDTAVYYCAKLRDNAEYTDYWGQGTLVTVSSNFMLTQPHSVSESPGKTVTISCTGSGGSIDRNYVQWYQQRPGSSPTTVIYEDNQRPSGVPDRFSGSIDSSSNSASLTISGLKTEDEADYYCQSYDPLPVWVFGGGTKLTVL
B14: CF1H1R3P3_G11, scFv format (scFv)
chain: B13 chain with A103G, T106L
B15: CF1H1R3P4_B5, scFv format (scFv)
chain: B13 chain with A103G, T106L, D214V, P215E, L216T, V218E
B16: CE7C1R3H8_J9, scFv format (scFv)
chain: QVQLVESGGGVVQPGRSLRLSCAASGFTFSTYGMHWVRQAPGKGLEWVAVISYDGGTKYYADSVKGRFTISRDNSMKTLYLQMNSLRTEDTAVYYCAKDLGDLPPGLDYWGQGTMVTVSSQSVLTQPPSASGTPGQRVTISCSGSSSNIGSNTVNWYQQLPGAAPKLLIYTNNQRPSGVPDRFSGSKSGTSASLAISGLQSEDEADYYCAAWDDSSEPRVVFGGGTKVTVL
B17: CB21R3P6_G7, scFv format (scFv)
chain: QVQLVQSGAEVKKPGSSVTVSCKASGGTFSSFSITWLRQAPGQGLEWMGEITPMFGIANYAQKFQGRVTISADESTSTAYMELSGLTSEDTAMYYCARDGRFDVSDLLTDKPKVTINYNGMDVWGQGTLVTVSSQSVLTQPPSASGTPGQRVTISCSGSSSNIGSNTVNWYQRLPGAAPQLLIYNNDQRPSGIPDRFSGSKSGTSGSLVISGLQSEDEADYYCASWDDSLNGRVFGGGTKLTVL
B18: CC21R3P1_H6, IgG1 format (antibody, V domains shown)
VH: QVQLVESGGGVAQSGKSLRLSCAASGFTFSNYGMHWVRQAPGKGLEWLAVISYDGSNRYYADSVKGRFTISRDNSNNTLNLQMSSLRAEDTALYYCAKDAGGPLDYWGKGTLVTVSS
VL: VLTQLTQPPSVSLAPGQTATITCGGDNIGRKSVHWYQQKPGQAPVLVVYDDTDRPSGIPERFSGSNSGNTATLTISRVEAGDEADYYCQVWDSSIDHSWVFGGGTKLTVL
B19: CB21R3P3_E5, IgG1 format (antibody, V domains shown)
VH: QVQLVESGGGVVQPGRSLRLSCAASGFTFSSYGMHWVRQAPGKGLEWVAVISYDGSIKYYADSVKGRFTISRDNSKNTLYLQMNSLRAEDAAVYYCARAPDGHQLDYWGRGTLVTVSS
VL: NFMLTQPHSVSESPGKTVTISCTGSSGSIASNYVQWYQQRPGSAPTTVIYEDDQRPSDVPDRFSGSIDSSSNSASLTISGLRTEDEADYYCQSYVSSKWVFGGGTKLTVL

These binders were tested against T1, recombinant human IP-10 (hIP-10) (assay: cell-based or functional assay).

Binder	Calcium flux IC50 (nM); 10 nM hIP-10; hCXCR3 L1.2 cells	Chemotaxis IC50 (nM); 2 nM hIP-10; hCXCR3 L1.2 cells	Chemotaxis IC50 (nM); 1 nM hIP-10; hCXCR3 L1.2 cells	Chemotaxis IC50 (nM); 0.2 nM hIP-10; hCXCR3 L1.2 cells
B1	36 nM	18 nM		
B2	14 nM		1.8 nM	
B3	39 nM	36 nM		
B4	36 nM	40 nM		
B5	107 nM		36 nM	
B6	71 nM		72 nM	
B7	14 nM		15 nM	
B8	37 nM		108 nM	
B9	250 nM	71 nM		
B10	71 nM		36 nM	
B11	107 nM		107 nM	
B12	179 nM		72 nM	
B13				0.12 nM
B14	7.8 nM			0.39 nM
B15	2.4 nM			0.51 nM
B16			0.9 nM	
B17	46 nM		10 nM	

Target: T1, recombinant human IP-10 (hIP-10)
Assay: cell-based or functional assay
Remark: another data set of the same source

Binder	Calcium flux IC50 (nM); 10 nM rhIP-10	Chemotaxis IC50 (nM); 1 nM rhIP-10
B18	> 200 nM	75 nM
B19		122 nM
